What was measured:
Assay in all cases: co-IP with anti-FLAG, mass spectrometry; lysate of cells with N-FLAG B3GNT2
[1] = molecular target: T1, IPO13 (human, UniProt O94829 1-963)
T1 construct: also called NP_055467.3
T1 sequence (looked up): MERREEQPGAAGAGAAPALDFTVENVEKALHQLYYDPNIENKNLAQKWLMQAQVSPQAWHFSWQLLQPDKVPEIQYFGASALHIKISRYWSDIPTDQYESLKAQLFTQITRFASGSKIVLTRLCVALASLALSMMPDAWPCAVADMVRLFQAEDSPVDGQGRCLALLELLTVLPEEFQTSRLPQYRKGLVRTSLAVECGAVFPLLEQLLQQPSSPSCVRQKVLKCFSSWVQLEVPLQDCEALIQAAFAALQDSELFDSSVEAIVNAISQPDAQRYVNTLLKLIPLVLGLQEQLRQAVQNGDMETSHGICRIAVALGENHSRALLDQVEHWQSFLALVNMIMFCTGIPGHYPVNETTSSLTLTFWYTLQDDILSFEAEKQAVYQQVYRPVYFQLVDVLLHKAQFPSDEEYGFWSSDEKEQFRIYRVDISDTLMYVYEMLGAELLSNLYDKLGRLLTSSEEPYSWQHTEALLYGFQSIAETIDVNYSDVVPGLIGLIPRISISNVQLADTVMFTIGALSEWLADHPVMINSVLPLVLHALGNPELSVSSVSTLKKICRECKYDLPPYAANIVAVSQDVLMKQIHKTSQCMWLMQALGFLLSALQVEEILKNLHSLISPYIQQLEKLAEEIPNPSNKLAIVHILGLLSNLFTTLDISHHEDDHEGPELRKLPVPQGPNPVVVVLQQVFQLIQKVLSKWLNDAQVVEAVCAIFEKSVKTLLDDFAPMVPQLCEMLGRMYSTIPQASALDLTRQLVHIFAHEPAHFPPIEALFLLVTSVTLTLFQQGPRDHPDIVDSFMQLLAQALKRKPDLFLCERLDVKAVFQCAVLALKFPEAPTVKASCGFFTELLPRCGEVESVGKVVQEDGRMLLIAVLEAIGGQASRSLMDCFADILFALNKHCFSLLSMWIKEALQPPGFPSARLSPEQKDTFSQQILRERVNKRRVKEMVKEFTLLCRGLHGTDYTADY
Description: (§1) Cells were plated in 10-cm cell culture dishes and grown to 60-80% confluency. For each condition, two biological replicates were harvested for co-IP. Cells were washed with PBS and 4 mL of lysis buffer (20 mM HEPES, 1% Triton X-100, 150 mM NaCl, 1 mM EDTA, and 10% glycerol) containing protease inhibitor cocktail was added. Cells were scraped and lysate was incubated at 4° C. under rotary agitation for 1 h. Lysate was centrifuged at 14,000×g for 10 min at 4° C. Supernatant was transferred to a new tube and an aliquot was taken as the input. […] For Western blots, 10 μg/mL Chicken Anti-FLAG (Aves labs ET-DY100) and IgY control (R&D Systems AB-101-C) antibodies were biotinylated (Thermo Fisher Scientific 90407) and added to the respective conditions. Lysates with antibodies were incubated at 4° C. under rotary agitation overnight. For each mL of lysate, 50 μL of Pierce Protein A/G Magnetic Beads (Mass spectrometry; Thermo Fisher Scientific 88803) or Pierce Streptavidin Magnetic Beads (Western blot; Thermo Fisher Scientific 88817) was washed twice with lysis buffer. Lysates with antibodies were added to the beads and incubated at 4° C. under rotary agitation for 4 h. Beads were washed with lysis buffer 3 times and resuspended in lysis buffer for storage.
(§2) Magnetic beads were resuspended in 100 mM Tris pH 7.8, reduced, alkylated and digested with trypsin at 37° ° C. overnight. This solution was subjected to solid phase extraction to concentrate the peptides and remove unwanted reagents followed by injection onto a Shimadzu HPLC with fraction collector. Eight fractions were collected and after concentration were injected on a Waters NanoAcquity HPLC equipped with a self-packed Aeris 3 μm C18 analytical column 0.075 mm by 20 cm, (Phenomenex). Peptides were eluted using standard reverse-phase gradients. The effluent from the column was analyzed using a Thermo Orbitrap Elite mass spectrometer (nanospray configuration) operated in a data dependent manner for 54 minutes. The resulting fragmentation spectra were correlated against the known database using Proteome Discover 1.4 (Thermo Fisher Scientific).

[2] = molecular target: T2, GANAB (human, UniProt Q14697 29-944)
T2 construct: also called NP_938148.1 (+1)
T2 sequence (looked up): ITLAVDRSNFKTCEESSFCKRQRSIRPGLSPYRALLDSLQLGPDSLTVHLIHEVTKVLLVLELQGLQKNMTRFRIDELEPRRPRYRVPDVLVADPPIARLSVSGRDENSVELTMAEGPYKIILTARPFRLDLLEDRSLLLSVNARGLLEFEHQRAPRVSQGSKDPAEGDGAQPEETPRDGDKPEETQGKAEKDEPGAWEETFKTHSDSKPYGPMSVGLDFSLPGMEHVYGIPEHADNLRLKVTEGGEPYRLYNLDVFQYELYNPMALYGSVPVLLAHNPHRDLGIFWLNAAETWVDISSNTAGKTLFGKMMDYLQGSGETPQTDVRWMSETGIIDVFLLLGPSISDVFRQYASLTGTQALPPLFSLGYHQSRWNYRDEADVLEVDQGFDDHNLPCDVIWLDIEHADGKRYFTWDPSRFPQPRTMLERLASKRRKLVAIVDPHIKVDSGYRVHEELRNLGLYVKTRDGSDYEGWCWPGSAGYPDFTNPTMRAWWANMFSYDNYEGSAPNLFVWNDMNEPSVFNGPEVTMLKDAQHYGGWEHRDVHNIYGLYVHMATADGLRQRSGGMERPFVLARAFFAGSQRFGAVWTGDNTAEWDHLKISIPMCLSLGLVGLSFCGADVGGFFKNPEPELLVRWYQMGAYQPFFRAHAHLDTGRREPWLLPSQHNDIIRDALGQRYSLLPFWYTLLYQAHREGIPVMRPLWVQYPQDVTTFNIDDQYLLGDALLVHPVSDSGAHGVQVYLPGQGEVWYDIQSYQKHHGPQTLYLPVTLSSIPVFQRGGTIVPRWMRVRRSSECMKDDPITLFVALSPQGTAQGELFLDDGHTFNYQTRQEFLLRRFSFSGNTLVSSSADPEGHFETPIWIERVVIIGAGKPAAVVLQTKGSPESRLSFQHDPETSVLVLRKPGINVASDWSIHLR
Description: as §1, §2

[3] = molecular target: RPL26 (human, UniProt P61254 1-145)
Description: as §1, §2

B1: N-terminal FLAG tagged B3GNT2 (enzyme, human, UniProt Q9NY97 1-397, looked up)
chain: MSVGRRRIKLLGILMMANVFIYFIMEVSKSSSQEKNGKGEVIIPKEKFWKISTPPEAYWNREQEKLNRQYNPILSMLTNQTGEAGRLSNISHLNYCEPDLRVTSVVTGFNNLPDRFKDFLLYLRCRNYSLLIDQPDKCAKKPFLLLAIKSLTPHFARRQAIRESWGQESNAGNQTVVRVFLLGQTPPEDNHPDLSDMLKFESEKHQDILMWNYRDTFFNLSLKEVLFLRWVSTSCPDTEFVFKGDDDVFVNTHHILNYLNSLSKTKAKDLFIGDVIHNAGPHRDKKLKYYIPEVVYSGLYPPYAGGGGFLYSGHLALRLYHITDQVHLYPIDDVYTGMCLQKLGLVPEKHKGFRTFDIEEKNKNNICSYVDLMLVHSRKPQEMIDIWSQLQSAHLKC
notes: Bait of the co-IP; pulled down with mouse anti-FLAG (Millipore Sigma F3165) from cell lysate; also called N-FLAG B3GNT2; N-term FLAG; not shown: N-terminal FLAG tag
Question: For B1, which “co-IP mass spectrometry count” value [1] is on record?
Answer: 0

Question: What about the “co-IP mass spectrometry count” value [2] of the same binder?
Answer: 0

Question: What about the “co-IP mass spectrometry count” value [3] of the same binder?
Answer: 7
